Measurements reported in US20090082270A1 (ACCELERON PHARMA, published 2009).

T1: human Cerberus (human, UniProt O95813 18-267, limits assumed)
T1 construct: it includes the native leader
T1 sequence: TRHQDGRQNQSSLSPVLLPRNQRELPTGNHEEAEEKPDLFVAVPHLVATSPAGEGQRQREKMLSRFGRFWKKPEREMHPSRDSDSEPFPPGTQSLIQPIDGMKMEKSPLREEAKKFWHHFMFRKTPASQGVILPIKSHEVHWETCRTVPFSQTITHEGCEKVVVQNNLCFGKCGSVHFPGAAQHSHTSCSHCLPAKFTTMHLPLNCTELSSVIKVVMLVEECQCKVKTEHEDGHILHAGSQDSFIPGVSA

B1: Activin A (ligand, UniProt P08476 311-426, looked up)
chain: GLECDGKVNICCKKQFFVSFKDIGWNDWIIAPSGYHANYCEGECPSHIAGTSGSSLSFHSTVINHYRMRGHSPFANLKSCCVPTKLRPMSMLYYDDGQNIIKKDIQNMIVEECGCS
B2: Human Coco, full length, Fc (TGGG linker and mFc) (Fc fusion)
chain: GRPEPQSPRPQSWAAANQTWALGPGALPPLVPASALGSWKAFLGLQKARQLGMGRLQRGQDEVAAVTLPLNPQEVIQGMCKAVPFVQVFSRPGCSAIRLRNHLCFGHCSSLYIPGSDPTPLVLCNSCMPARKRWAPVVLWCLTGSSASRRRVKISTMLIEGCHCSPKATGGGTHTCPPCPAPELLGGPSVFLFPPKPKDTLMISRTPEVTCVVVDVSHEDPEVKFNWYVDGVEVHNAKTKPREEQYNSTYRVVSVLTVLHQDWLNGKEYKCKVSNKALPVPIEKTISKAKGQPREPQVYTLPPSREEMTKNQVSLTCLVKGFYPSDIAVEWESNGQPENNYKTTPPVLDSDGSFFLYSKLTVDKSRWQQGNVFSCSVMHEALHNHYTQKSLSLSPGK
notes: Tested as conditioned medium; also called Coco-mFc; human Coco-mFc

What was measured:
[1] = target: T1, human Cerberus; experiment: "similar experiments" to the A-204 reporter gene assay; method not further described
[2] = target: B1; experiment: as above

B1
binding result [1]: no binding

B2
binding result [2]: no binding
